Experimental findings from the supplement of paper PMC9170038 are described below.

The series concerns MS2 coat protein. The series is described as follows: apparent KD of MS2 coat protein; designed switch direction (-1 OFF switch, 1 ON switch): 1; higher = weaker reporter binding. An outline of the steps: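 Three titration conditions were used: no input, 200 uM small-molecule ligand, and an oligonucleotide input. In each, SNAP-549-labelled MS2 coat protein was raised from 0.7 or 1.5 nM, doubling, to 3 µM over designed RNA switches transcribed on Illumina chips by stalled E. coli RNA polymerase. Curve fits of normalised cluster fluorescence gave values whose per-design median over clusters is the apparent KD.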

[1] abbreviates: input ligand: microRNA oligo, concentration not stated.
Where [2] appears, read: Eterna round: R95, input ligand: FMN 200 uM.
The mark [3] stands for this setting: Eterna round: R95, input ligand: microRNA oligo, concentration not stated.
The mark [4] stands for this setting: Eterna round: R95, input ligand: none.

For the sequence “AACAUGAGGAUCACCCAUGUCAGGCCGCCGGCCUACAUGAGGAAGGAUAUAGCCUCGAAAAUUGGCUAGAAGGUCCUCAUGAAU [Letemaar] (Eterna round: R96, puzzle: Same State NG 3)”, the “apparent KD of MS2 coat protein” value was 115 nM (input ligand: FMN 200 uM), 4.24 nM under setting [1] and 26.1 nM (input ligand: none).

As to “AACCGACAUGAGGAUCACCCAUGUAAAUGCAGGGCAGGAUAUCAAUCGGGAGGCCGAAAAUGAGAAGGGCCUAAAA [Onedte] (puzzle: Same State 1)”, the “apparent KD of MS2 coat protein” value runs as follows: under setting [2], 46.9 nM; under setting [3], 250 nM; under setting [4], 839 nM.

For “AACCGGGAGAAGCAGGAUAUUGCCUCUUCAACAUGAGGAUCACCCAUGUAAGUAAAUUGACGAUACAAGAAGGGCUGCUCCUUAC [Raatgees] (Eterna round: R96, puzzle: Same State 2)”, the “apparent KD of MS2 coat protein” value under setting [1] was 79.1 nM.

In the case of “AACGUGGGCUAGCAGGAUAUACUGCGAGUAACAUGAGGAUCACCCAUGUUGUCCCGCAAGACAAUGUAGAAGGGCUGAUACCGCG [Atatlaor] (puzzle: Same State 2)”, the “apparent KD of MS2 coat protein” value by setting is: under setting [2], 18.1 nM; under setting [3], 28.4 nM; under setting [4], 26.5 nM.

In the case of “AAGAAAGUUUACGAGGAUAUGUUCCGCAUAACAUGAGGAUCACCCAUGUGAACAAGAAAGGCGACGCAGAAGGCGUGAGCAAAGA [Atanansori] (Eterna round: R96, puzzle: Same State 2)”, the “apparent KD of MS2 coat protein” value was determined as 42.4 nM (input ligand: FMN 200 uM), 152 nM under setting [1] and 219 nM (input ligand: none).

With “AAGAAGACGGACAAGGAUAUGUCAAAGGAAACAUGAGGAUCACCCAUGUGGAGAUUGGAAAAGAAACAGAAGGUGUACGGAGAGA [JR_SS2_Sub007] (puzzle: Same State 2)”, the “apparent KD of MS2 coat protein” value runs as follows: under setting [2], 10.6 nM; under setting [3], 12.3 nM; under setting [4], 29.3 nM.

For “AAGAGAGGAAGCGAGGAUAUCGUGGGAGGGACAUGAGGAUCACCCAUGUAGGAUGUUGAGAGGAACGAGAAGGCGCAGGAAAGAA [JR_SS2_Sub074] (puzzle: Same State 2)”, the “apparent KD of MS2 coat protein” value runs as follows: under setting [2], 87.4 nM; under setting [3], 73.3 nM; under setting [4], 96.1 nM.

Consider “AAGCUCGUGUGAGGAUAUGCCGCCGUUUCGGCUGCAGAAGGUGCUACGUUACAUGAGGAUCACCCAUGUCUCUGUUGUUUCGUA [salish99_SSNG1_r04_952] (Eterna round: R96, puzzle: Same State NG 1)”, for which the “apparent KD of MS2 coat protein” value under setting [1] amounted to 37 nM.

As to “AAGUAGGAGUUACAGGAUAUAUGGAGGAGGACAUGAGGAUCACCCAUGUGAGAGAUGAGAGGAGGAUAGAAGGGUAAGGGAGUAA [JR_SS2_Sub027] (puzzle: Same State 2)”, the “apparent KD of MS2 coat protein” value is, setting by setting: under setting [2], 24.1 nM; under setting [3], 20.9 nM; under setting [4], 32 nM.

As for “AAUUAAGAUUAAGGAUAUCACGUCGUUUAGACGUGAGAAGGUGAUCAUAACAUGAGGAUCACCCAUGUAUUACAUGAAUUAAUU [SSNG1/3-B3] (Eterna round: R96, puzzle: Same State NG 1)”, the “apparent KD of MS2 coat protein” value is 1040 nM (input ligand: FMN 200 uM), 284 nM under setting [1] and 1190 nM (input ligand: none).

Regarding “AAUUUAAUACAUGAGGAUCACCCAUGUAAUACUUGUAAGAUCAAGGAUAUCAGCUCGUUUAGAGCUGAGAAGGUGAUCACAUGU [SSNG3/19-D3] (Eterna round: R96, puzzle: Same State NG 3)”, the “apparent KD of MS2 coat protein” value under setting [1] stood at 40.7 nM.

As to “AAUUUCUAGAGAGGAUAUGCAGAGGAUCACCCUGCAGAAGGCUCGAGAGAGAGGAUAUGCAGAGGAUCACCCUGCAGAAGGCUC [pwkr ssNG DX.29] (Eterna round: R96, puzzle: Same State NG 1)”, the “apparent KD of MS2 coat protein” value was 14.5 nM (input ligand: FMN 200 uM), 14.7 nM under setting [1] and 18.4 nM (input ligand: none).

For the sequence “AAUUUGGGACAUGAGGAUCACCCAUGUAUUAUAAAUGGGACAAGUUUUUUGCUCGUCUUAUACAUGGGUGAAAAUCU [Test] (puzzle: Sensor for hsa-mir-208a version 2)”, the “apparent KD of MS2 coat protein” value came to 17.8 nM under setting [2], 21.7 nM under setting [3] and 23.7 nM under setting [4].

As for “ACAAGCUUUUCUGUAUUGAAAGGUGGGAUACAUGAGGAUCACCCAUGUUUGUUUGUUUAUUGUUUUCCUCGUCUUAU [JR_SHM208A_Sub089] (puzzle: Sensor for hsa-mir-208a)”, the “apparent KD of MS2 coat protein” value by setting is: under setting [2], 71 nM; under setting [3], 27.5 nM; under setting [4], 66.2 nM.

For “ACAAGCUUUUUAGGAAGAGAAGAAAGGGAACAUGAGGAUCACCCAUGUAAGUGGAAUGAAGAAGGAGCACGUCUUAU [JR_SHM208A_Sub096] (puzzle: Sensor for hsa-mir-208a)”, the “apparent KD of MS2 coat protein” value by setting is: under setting [2], 54.2 nM; under setting [3], 17.5 nM; under setting [4], 61 nM.

For the sequence “ACAUGAGACCGAGGAUAUAUUGUACCUACAUGUGACAUGAGGAUCACCCAUGUGGUAAGUAUGACAUAGAAGGCGGAGAUAUGU [Equivalance 92 - Jieux - Same State NG 2] (Eterna round: R96, puzzle: Same State NG 2)”, the “apparent KD of MS2 coat protein” value is, setting by setting: (input ligand: FMN 200 uM) 19.6 nM; under setting [1], 25.9 nM; (input ligand: none) 30.1 nM.

On to “ACAUGAGACUCAGGAUAUCAUGUACCUACAUGUGACAUGAGGAUCACCCAUGUGGUAAGUAUGACUGAGAAGGGAGAGAUAUGU [Equivalance 88 - Jieux - Same State NG 2] (Eterna round: R96, puzzle: Same State NG 2)”, for which the “apparent KD of MS2 coat protein” value runs as follows: (input ligand: FMN 200 uM) 63.7 nM; under setting [1], 159 nM; (input ligand: none) 248 nM.

In the case of “ACAUGAGACUCAGGAUAUCUUGUACCUACAUGUGACAUGAGGAUCACCCAUGUGGUAAGUAUGACAGAGAAGGGAGAGAUAUGU [Equivalance 87 - Jieux - Same State NG 2] (Eterna round: R96, puzzle: Same State NG 2)”, the “apparent KD of MS2 coat protein” value reads like this: (input ligand: FMN 200 uM) 26.7 nM; under setting [1], 47.2 nM; (input ligand: none) 64.1 nM.

For “ACAUGAGAGAAAGGAUAUCUUGUACCUACAUGUGACAUGAGGAUCACCCAUGUGGUAAGUAUGACGGAGAAGGUUCAGAUAUGU [Equivalance 72 - Jieux - Same State NG 2] (Eterna round: R96, puzzle: Same State NG 2)”, the “apparent KD of MS2 coat protein” value was found to be 77.1 nM (input ligand: FMN 200 uM), 125 nM under setting [1] and 154 nM (input ligand: none).

“ACAUGAGAGAUAGGAUAUGUUGUACCUACAUGUGACAUGAGGAUCACCCAUGUGGUAAGUAUGAGGCAGAAGGAUCAGAUAUGU [Equivalence 41 - Jieux - Same State NG 2] (Eterna round: R96, puzzle: Same State NG 2)”: the “apparent KD of MS2 coat protein” value runs as follows: (input ligand: FMN 200 uM) 29.2 nM; under setting [1], 68.1 nM; (input ligand: none) 88.1 nM.

As for “ACAUGAGAGUGAGGAUAUACUGUACCUACAUGUGACAUGAGGAUCACCCAUGUGGUAAGUAUGACGUAGAAGGCACAGAUAUGU [Equivalance 79 - Jieux - Same State NG 2] (Eterna round: R96, puzzle: Same State NG 2)”, the “apparent KD of MS2 coat protein” value was found to be 33.1 nM (input ligand: FMN 200 uM), 118 nM under setting [1] and 182 nM (input ligand: none).

For “ACAUGAGGAUCACCCAUGUAUGCUCAGGAAACUGUGCAUCGUGAGGAUAUGGAUCCUAAUUGGAUCCAGAAGGCAUGUAUUAUU [Fiskers NG3ss - 27] (Eterna round: R96, puzzle: Same State NG 3)”, the “apparent KD of MS2 coat protein” value is, setting by setting: (input ligand: FMN 200 uM) 321 nM; under setting [1], 23.9 nM; (input ligand: none) 153 nM.

For “ACAUGAGGAUCACCCAUGUCGGAUAAGGAAACGACCACGUGGGAGGAUAUUGUAACGCGUCUGUACGAGAAGGCCCAUUCCAGU [Eternabot solution 42] (Eterna round: R96, puzzle: Same State NG 3)”, the “apparent KD of MS2 coat protein” value came out at 29.2 nM (input ligand: FMN 200 uM), 66.8 nM under setting [1] and 80.8 nM (input ligand: none).

On to “ACCCGCGGGCCACAUGAGGAUCACCCAUGUGACCGGUGAUCCAAGGAUAUGUGUAGGGUAGAUGCACAGAAGGUGGCCAAAACU [Ainriqu] (Eterna round: R96, puzzle: Same State NG 3)”, for which the “apparent KD of MS2 coat protein” value came out at 26.6 nM (input ligand: FMN 200 uM), 14.8 nM under setting [1] and 18.5 nM (input ligand: none).

Consider “ACCGAGAGGCUAGGAUAUUAGGGCAUUUGCAUAUGAGAAGGAGCCAGAUGGCCACAUGAGGAUCACCCAUGUCAACCCUGGACA [Eternabot solution 4] (Eterna round: R96, puzzle: Same State NG 1)”, for which the “apparent KD of MS2 coat protein” value reads like this: (input ligand: FMN 200 uM) 22.5 nM; under setting [1], 12.9 nM; (input ligand: none) 18.2 nM.

As for “ACGCAGCUAGGUGAGGAUAUCGGUGGUAAAACAUGAGGAUCACCCAUGUCCGAAGCUCGGACUUCCGAGAAGGCGCCCGGCUGCA [Velaberi] (Eterna round: R96, puzzle: Same State 2)”, the “apparent KD of MS2 coat protein” value runs as follows: (input ligand: FMN 200 uM) 12.7 nM; under setting [1], 78.8 nM; (input ligand: none) 106 nM.

In the case of “ACGCAGCUAGGUGAGGAUAUCGGUGGUAAAACAUGAGGAUCACCCAUGUCCGAAGCUCGGACUUCCGAGAAGGCGCCCGGCUGCA [Velaberi] (puzzle: Same State 2)”, the “apparent KD of MS2 coat protein” value is 13.9 nM under setting [2], 64.2 nM under setting [3] and 96.2 nM under setting [4].

Regarding “ACUUAGUACAAUUUAGAUCUACAUGAGGAUCACCCAUGUACUGAGGAUAUCAGCUCGAUUAGAGCUGAGAAGGCAGAAGUACUU [SSNG3/8-A2] (Eterna round: R96, puzzle: Same State NG 3)”, the “apparent KD of MS2 coat protein” value by setting is: (input ligand: FMN 200 uM) 45.4 nM; under setting [1], 159 nM; (input ligand: none) 220 nM.
